In this test the target is Recombinant nucleolin fused with a polyhistidine (His)6 tag, made in Pichia GS115 (human) (UniProt P19338). Briefly: SPR (BIAcore 2000), ES amine-coupled on a CM5 chip, NL 62.5-500 nM in flow, 25° C., 1:1 Langmuir model. Background: In SPR one partner is held on a chip, and binding of the other changes the refractive index at the surface.

Our source for the Kd values is US20230174644A1.

Chain of UniProt P19338 (P19338 other isoform, or with tags, fused parts or gaps limits assumed): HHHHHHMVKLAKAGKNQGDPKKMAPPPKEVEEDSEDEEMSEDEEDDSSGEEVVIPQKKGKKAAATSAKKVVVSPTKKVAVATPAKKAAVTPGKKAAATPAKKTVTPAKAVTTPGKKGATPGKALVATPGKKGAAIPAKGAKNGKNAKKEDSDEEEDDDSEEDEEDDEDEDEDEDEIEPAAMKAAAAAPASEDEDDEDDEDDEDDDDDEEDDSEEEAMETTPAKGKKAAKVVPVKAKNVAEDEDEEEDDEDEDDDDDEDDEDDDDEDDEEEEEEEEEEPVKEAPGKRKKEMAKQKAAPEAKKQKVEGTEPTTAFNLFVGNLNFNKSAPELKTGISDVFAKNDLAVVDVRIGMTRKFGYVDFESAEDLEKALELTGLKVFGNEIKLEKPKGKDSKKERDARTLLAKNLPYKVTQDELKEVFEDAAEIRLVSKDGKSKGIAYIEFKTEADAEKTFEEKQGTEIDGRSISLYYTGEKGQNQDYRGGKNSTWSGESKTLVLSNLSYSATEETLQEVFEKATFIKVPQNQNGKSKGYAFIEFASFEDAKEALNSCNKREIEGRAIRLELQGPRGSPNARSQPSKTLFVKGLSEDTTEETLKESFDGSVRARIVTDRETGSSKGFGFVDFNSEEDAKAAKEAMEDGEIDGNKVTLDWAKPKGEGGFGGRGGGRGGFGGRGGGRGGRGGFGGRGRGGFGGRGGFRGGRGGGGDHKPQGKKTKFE

As a reminder, the Kd is the equilibrium constant for the complex coming apart. Turning to “Endostatin (recombinant, with N-terminal His-tag) (from UniProt P39060 1572-1754) (ligand)”, the Kd was determined as 23.2 nM.
